According to patent US20250243273A1 (FOURTH MILITARY MEDICAL UNIVERSITY, published 2025):

Molecular target: T1, human BASIGIN, native, on human erythrocytes and in human tumour tissue (human, UniProt P35613 22-385)
T1 sequence (looked up): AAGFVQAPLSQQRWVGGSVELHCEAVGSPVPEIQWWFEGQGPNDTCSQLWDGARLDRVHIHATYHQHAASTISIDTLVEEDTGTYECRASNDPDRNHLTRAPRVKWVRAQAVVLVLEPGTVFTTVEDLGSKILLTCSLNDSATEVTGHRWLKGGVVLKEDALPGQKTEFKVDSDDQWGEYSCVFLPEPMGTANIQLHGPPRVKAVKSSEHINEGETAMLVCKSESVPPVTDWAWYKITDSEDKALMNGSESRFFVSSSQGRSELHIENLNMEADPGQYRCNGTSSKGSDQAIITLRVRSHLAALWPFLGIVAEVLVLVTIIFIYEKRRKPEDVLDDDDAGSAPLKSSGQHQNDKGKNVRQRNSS
Test: cell-based or functional assay

B1: humanized antibody HP6H8-1 (antibody, V domains shown)
VH: EVQLVESGGGLVQPGGSLRLSCAASGFTFSNFWMNWVRQAPGKGLEWVSEIRLKSNNYATHYAESVKGRFTISRDDSKNTLYLQMNSLKTEDTAVYYCTSYDYEYWGQGTLVTVSA
VL: DIQMTQSPSTLSASVGDRVTLSCKASENVGTYVSWYQQKPGKAPKLLIYGASNRYTGVPSRFTGSGSGTDFTLTISSLQPEDFATYYCGQSYSYPFTFGSGTKLEIK
With B1 the “IC50, in vitro inhibition of Plasmodium falciparum strain 3D7 invasion of human erythrocytes (parasite rate after 72 hrs)” value was 20 µg/mL, the “IC50, in vitro inhibition of Plasmodium falciparum strain Dd2 invasion of human erythrocytes (parasite rate after 72 hrs)” value was 40 µg/mL and the “IC50, in vitro inhibition of Plasmodium falciparum strain FCC1 invasion of human erythrocytes (parasite rate after 72 hrs)” value was 40 µg/mL. For the same binder, the “IC50, in vitro inhibition of Plasmodium falciparum strain Nf54 invasion of human erythrocytes (parasite rate after 72 hrs)” value was 50 µg/mL.
